Measurements reported in patent US20250042961A1, “P53 PEPTIDOMIMETIC MACROCYCLES” (MERCK SHARP & DOHME LLC, priority 2021, published 2025).

How the values were obtained:
[1] = target: Purified MDM2 (1-125) protein (human MDM2 1-125 sequence comprising a modified TEV cleavage site, pNIC-GST fusion) (human) (UniProt Q00987); assay: competitive fluorescence anisotropy (FP) against FAM-labeled 12/1 peptide on MDM2 (1-125); apparent Kd
[2] = target: MDM2 (in HCT116 cells) (human) (UniProt Q00987); assay: cell-based or functional assay

Chain of Purified MDM2 (1-125) protein (human MDM2 1-125 sequence comprising a modified TEV cleavage site, pNIC-GST fusion) (human) (Q00987 1-125 limits assumed): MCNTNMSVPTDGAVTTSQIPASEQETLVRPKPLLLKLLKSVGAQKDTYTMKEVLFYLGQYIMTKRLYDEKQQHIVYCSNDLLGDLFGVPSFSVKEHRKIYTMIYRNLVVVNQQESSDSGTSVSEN

Row | Substance | Kd [1] [nM] | p53 activity EC50 (µM) (0% FBS, 4 h) [2] | p53 activity EC50 (µM) (10% FBS, 16 h) [2]
1 | Acetyl-^DPMI-δ-(6-10 olefin staple) (D-K9D-Q, D-R12D-S) (D-A)-(D-F)-(D-A)-(D-Ala)-(D-A)-(D-A) polypeptide tail)-NH2 | 30 | – | –
2 | Acetyl-^DPMI-δ-(6-10 olefin staple) (D-K9D-Q, D-R12D-S)-NH2 (peptide) | 258 | – | –
3 | Acetyl-^DPMI-δ-(6-10 olefin staple) (D-K9D-Q, D-R12D-S, 3x(D-A) polypeptide tail)-NH2 | 3.1 | – | –
4 | Acetyl-^DPMI-δ-(6-10 olefin staple) (D-K9D-Q, D-R12D-S, 3x(D-Ala)-(D-Glu)-2x(D-Ala) polypeptide tail)-NH2 | 0.43 | – | –
5 | ^DPMI-δ-(5-12 olefin staple)-NH2 (peptide) | 33.9 | 13.6 | 30.8
6 | ^DPMI-δ-(6-10 olefin staple)-NH2 (peptide) | 118 | – | –
